In publication PMC10879569, “Major cardiovascular events under biologic psoriasis therapies: a 19-year real-world analysis of FAERS data” (Frontiers in Immunology, 2024):

Key:
psoriasis = conditions: in vivo; cited from earlier work
[1] = tested on: active psoriatic arthritis; conditions: in vivo; cited from earlier work
[2] = tested on: patients with psoriasis indication; assay: FAERS disproportionality analysis (PRR and MGPS/EBGM) of MACEs reporting versus other psoriasis treatments; assay type: in vivo; conditions: compared among the biological classes
Text: FAERS collects […] of drug adverse events reports worldwide submitted by health professionals, consumers, and manufacturers. We chose the FAERS dataset as the data source for this study, and the analytical period was from January 2004 to December 2022. To enhance the reliability and validity of our results, only records submitted by professional health workers (e.g., physicians, pharmacists, and other health professionals) were included. To avoid potential confounders in causality assessments such as indication, the analysis was refined by retaining only reports with an expanded psoriasis indication. The raw FAERS data were cleaned, mapped, de-duplicated, and normalized by SQL server Data Mining.
The names are listed in Supplementary Table S1 .
Inclusion of reports was limited to only those cases where a biologic drug was identified as “the primary suspect” or”secondary suspect”. The control groups were comprised of the population who were indicated with psoriasis and receiving other psoriasis systemic therapies except biological agents. […]
This study is a case–non-case study. […] Disproportionality analysis (proportional reporting ratio, PRR) and MGPS were calculated to identify drug–event combinations with reporting rates higher than expected versus other drugs among patients with psoriasis indication. […]

[3] = design: method as in PMID 22011907, PMID 21862748; conditions: 2011; cited from earlier work
[4] = in vivo; cited from earlier work

**Q.** Which “MACEs events reported in the treatment group” value (psoriasis) does the source give for Ixekizumab here?
**A.** Its value is “two”.

**Q.** With Secukinumab as the substance, how does the “MACEs reported in the treatment group” value [1] read?
**A.** Its value is “two”.

**Q.** For Adalimumab, which “MACEs reported in the treatment group” value [1] is on record?
**A.** The value was “none”.

**Q.** For Ustekinumab, which “reporting rate for the four SMQs (myocardial infarction, stroke, cardiac fatality, death)” value [2] is on record?
**A.** Its value is “highest reporting rate for all four SMQs”.

**Q.** With briakinumab as the substance, how does the “fate of clinical trials after reports of serious cardiovascular adverse events (e.g., myocardial infarction, cardiac death)” value [3] read?
**A.** The value was “discontinued before marketing”.

**Q.** Which “cardiac disorders as share of serious adverse events suspected of being caused by the drug” value [4] does the source give for Risankizumab here?
**A.** Its value is 10.9%.
